{"source": "patent US20210063414A1", "about": "“METHODS FOR PREVENTING AND/OR TREATING BONE LOSS CONDITIONS BY MODULATING IRISIN” (Dana-Farber Cancer Institute, Inc., priority 2018, published 2021)", "molecules": {"B1": {"name": "irisin: secreted cleaved form of FNDC5; recombinant human/mouse irisin with C-terminal his tag produced in HEK293 cells (protein)", "chain": "DSPSAPVNVTVRHLKANSAVVSWDVLEDEVVIGFAISQQKKDVRMLRFIQEVNTTTRSCALWDLEEDTEYIVHVQAISIQGQSPASEPVLFKTPREAEKMASKNKDEVTMKE", "modifications": "left off: small tags and cut ends", "notes": "secreted cleaved form of FNDC5; recombinant human/mouse irisin with C-terminal his tag produced in HEK293 cells"}}, "molecular_target": "integrin αV/β5 (Homo sapiens, UniProt P06756+P18084)", "sequence (P06756 31-889 limits assumed)": "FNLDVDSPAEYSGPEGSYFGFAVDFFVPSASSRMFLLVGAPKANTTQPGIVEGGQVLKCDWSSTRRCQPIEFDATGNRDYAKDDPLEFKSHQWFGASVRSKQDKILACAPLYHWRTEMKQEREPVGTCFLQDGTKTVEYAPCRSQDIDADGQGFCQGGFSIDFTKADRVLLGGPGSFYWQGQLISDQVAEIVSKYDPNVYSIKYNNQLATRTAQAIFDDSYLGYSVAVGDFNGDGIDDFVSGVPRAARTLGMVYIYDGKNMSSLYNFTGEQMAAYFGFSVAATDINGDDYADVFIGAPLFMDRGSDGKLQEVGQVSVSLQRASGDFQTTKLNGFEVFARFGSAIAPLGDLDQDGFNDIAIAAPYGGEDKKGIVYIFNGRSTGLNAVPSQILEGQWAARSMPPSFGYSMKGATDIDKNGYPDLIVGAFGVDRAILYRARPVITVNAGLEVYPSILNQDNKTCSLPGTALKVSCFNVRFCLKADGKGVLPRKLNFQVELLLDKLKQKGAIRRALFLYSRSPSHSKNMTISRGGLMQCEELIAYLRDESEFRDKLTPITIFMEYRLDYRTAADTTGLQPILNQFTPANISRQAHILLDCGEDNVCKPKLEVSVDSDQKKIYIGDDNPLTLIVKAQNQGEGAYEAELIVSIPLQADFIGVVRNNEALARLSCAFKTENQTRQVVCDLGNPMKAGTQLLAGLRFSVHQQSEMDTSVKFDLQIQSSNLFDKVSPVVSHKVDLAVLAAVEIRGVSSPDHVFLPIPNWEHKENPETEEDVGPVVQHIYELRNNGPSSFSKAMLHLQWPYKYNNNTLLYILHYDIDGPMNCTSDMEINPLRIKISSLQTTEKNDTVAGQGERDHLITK", "sequence (P06756 891-1048 partner limits assumed)": "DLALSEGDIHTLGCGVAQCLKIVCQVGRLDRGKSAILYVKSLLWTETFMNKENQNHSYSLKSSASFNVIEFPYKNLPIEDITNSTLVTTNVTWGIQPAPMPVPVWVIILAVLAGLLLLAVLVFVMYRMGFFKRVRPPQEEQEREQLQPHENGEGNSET", "sequence (P18084 24-799)": "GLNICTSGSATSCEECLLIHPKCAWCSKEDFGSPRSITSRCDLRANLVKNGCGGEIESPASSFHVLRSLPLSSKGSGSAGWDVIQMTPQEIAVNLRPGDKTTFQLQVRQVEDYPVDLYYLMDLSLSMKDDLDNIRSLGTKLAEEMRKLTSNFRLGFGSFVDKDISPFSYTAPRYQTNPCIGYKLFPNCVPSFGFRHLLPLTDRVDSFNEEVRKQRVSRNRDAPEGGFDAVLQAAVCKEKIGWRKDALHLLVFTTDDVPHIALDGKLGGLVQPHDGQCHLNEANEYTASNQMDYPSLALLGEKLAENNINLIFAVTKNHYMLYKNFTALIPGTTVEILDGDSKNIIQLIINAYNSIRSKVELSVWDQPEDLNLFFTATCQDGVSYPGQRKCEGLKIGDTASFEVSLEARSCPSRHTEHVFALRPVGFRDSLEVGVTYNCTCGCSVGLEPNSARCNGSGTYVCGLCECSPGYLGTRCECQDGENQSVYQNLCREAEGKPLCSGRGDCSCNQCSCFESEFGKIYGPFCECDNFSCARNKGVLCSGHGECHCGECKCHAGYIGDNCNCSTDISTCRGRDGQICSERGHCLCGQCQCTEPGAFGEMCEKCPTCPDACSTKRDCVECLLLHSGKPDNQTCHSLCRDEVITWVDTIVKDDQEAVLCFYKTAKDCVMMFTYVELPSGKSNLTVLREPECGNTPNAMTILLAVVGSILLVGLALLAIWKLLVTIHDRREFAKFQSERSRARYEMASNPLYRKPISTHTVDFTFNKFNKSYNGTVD", "test": "FAK phosphorylation in HEK293T cells with forced expression of integrin αV/β5", "type": "cell-based", "set-up": "expressed in transfected cells; host or cells: HEK293T", "conditions": "HEK293T, forced expression of integrin αV/β5, irisin 5 minutes", "method": "100 nM irisin was incubated with 5 nM indicated his-tag integrins followed by immunoprecipitation using Ni-NTA agaroses. Precipitated integrins and co-precipitated irisin were analyzed by immunoblot analysis. […] HEK293T cells were seeded and incubated until 50% cell density. The cells were transfected with 0.1 μg plasmids of indicated integrins. After 48 hours, the cells were incubated with Freestyle293 medium for 3 hours and were treated with indicated concentration of irisin for 5 minutes. Cells were lysed to detect the indicated protein level using immunoblot analysis. […] Sclerostin mRNA level was analyzed by qRT-PCR. […]\n100 nM irisin was incubated with 5 nM indicated his-tag integrins followed by immunoprecipitation using Ni-NTA agaroses. Precipitated integrins and co-precipitated irisin were analyzed by immunoblot analysis. […] Cells were treated and analyzed as FIG. 14B except using plasmids encoding integrin α5/β1 or integrin α11/β1 (FIG. 15C) integrin αV/β1(FIG. 15D).\nMLO-Y4 cells were treated and analyzed as described in FIG. 5A with addition of pretreatment of control RGD peptide, cyclo RGDyK (cRGDyK), or SB273005. […] HEK293 cells were treated and analyzed as described in FIG. 14B except the treatment of different dose of cyclo RGDyK. […] 8 weeks old male mice were treated and analyzed as described in FIG. 5D except the additional group with co-injection of 1 mg/kg SB273005. […]", "data": [{"molecule": "B1", "values": [{"measurement": "phosphorylation of FAK upon irisin treatment", "result": "enhanced level of phosphorylation of FAK"}]}]}
